# T1: protein VZV gE (amino acid sequence at positions 48 to 88) (varicella-zoster virus)
# T1 peptide: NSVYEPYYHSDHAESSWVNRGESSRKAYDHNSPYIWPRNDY
# Target: T1, protein VZV gE (amino acid sequence at …)
# Assay: ELISA, peptide coated on the plate, antibody at 5 ug/mL
# Method: After 16 hours, the gE solution was removed, and the well was washed three times with 300 μL of PBST (0.05% Tween 20 in PBS). The liquid remaining in the well was removed by tapping on a paper towel.
# As a blocking solution, 300 μL of 5% BSA in PBST (BSA: manufactured by Oriental Yeast Co., Ltd.) was added, followed by incubation at 37° C. for 1 hour. Thereafter, the BSA solution was removed, and the well was washed three times with 300 μL of PBST (0.05% Tween 20 in PBS). The liquid remaining in the well was removed by tapping on a paper towel. […] Thereafter, the primary antibody solution was removed, and the well was washed three times with 300 μL of PBST (0.05% Tween 20 in PBS).
binder,measurement,value
"Antibody 18 (antibody, V domains shown, also called antibody (II); monoclonal antibody produced by Hybridoma 18) VH: EVQLQESGPGLVKPSQSLSLTCTVTGYSITSDYAWNWIRQFPGNKLEWMGYISYSGNSSYNPSLKSRISFTRDTSKNQFFLQLNSVTTEDTATYYCARDGSRGFDYWGQGTTLTVSS VL: not shown",binding result,binds

# From patent publication US20210332109A1 (TANAKA KIKINZOKU KOGYO K K, published 2021)
